B1: recombinant HA-His-tagged TIFA, phosphorylated by ALPK1 (natural protein, human, UniProt Q96CG3 1-184, looked up)
chain: MTSFEDADTEETVTCLQMTVYHPGQLQCGIFQSISFNREKLPSSEVVKFGRNSNICHYTFQDKQVSRVQFSLQLFKKFNSSVLSFEIKNMSKKTNLIVDSRELGYLNKMDLPYRCMVRFGEYQFLMEKEDGESLEFFETQFILSPRSLLQENNWPPHRPIPEYGTYSLCSSQSSSPTEMDENES
modifications: phosphorylated by recombinant ALPK1 in the kinase reaction; residues not stated for this experiment
notes: TIFA, human; source: E. coli, purified (Ni column, desalted); phosphorylated in vitro by recombinant ALPK1; not shown: HA, N-terminal, kept
B2: Mouse ALPK1 kinase domain aa. 949-1231 (domain or fragment)
chain: not shown
notes: Used for crystallography in complex with the human N-terminal domain (a complex of two species' forms); also called mALPK1-KD; mouse kinase domain; source: E. coli, purified (Ni column; His-tag cleaved with TEV protease)

Experiments:
[1] = biological target: the molecule itself; assay: AlphaScreen or HTRF; TR-FRET after kinase reaction (260 nM HA-His-TIFA, 2 nM ALPK1, 6.25 uM ATP, 20 nM ADP-D-heptose, 1.5 h, 27 °C); anti-HA-Eu cryptate and anti-HA-d2 bound to the same TIFA oligomer, 26 °C for 1 h
[2] = biological target: T1, human ALPK1 N-terminal regulatory domain aa. 1-446 (human, UniProt Q96QP1-1 1-446); assay: crystal structure; mALPK1-KD and ALPK1-ND mixed, complex purified by size exclusion chromatography, 10 mg/ml; hanging drop vapor diffusion, 12% PEG 3350, 0.1 M CBTP pH 8.2; conditions: both partners purified
T1 construct: The sentence names the His-TEV tag before the mouse kinase domain; it is read here as applying to both constructs; also called ALPK1-ND; human N-terminal regulatory domain; source: E. coli, purified (Ni column; His-tag cleaved with TEV protease)
T1 sequence (Q96QP1 1-446): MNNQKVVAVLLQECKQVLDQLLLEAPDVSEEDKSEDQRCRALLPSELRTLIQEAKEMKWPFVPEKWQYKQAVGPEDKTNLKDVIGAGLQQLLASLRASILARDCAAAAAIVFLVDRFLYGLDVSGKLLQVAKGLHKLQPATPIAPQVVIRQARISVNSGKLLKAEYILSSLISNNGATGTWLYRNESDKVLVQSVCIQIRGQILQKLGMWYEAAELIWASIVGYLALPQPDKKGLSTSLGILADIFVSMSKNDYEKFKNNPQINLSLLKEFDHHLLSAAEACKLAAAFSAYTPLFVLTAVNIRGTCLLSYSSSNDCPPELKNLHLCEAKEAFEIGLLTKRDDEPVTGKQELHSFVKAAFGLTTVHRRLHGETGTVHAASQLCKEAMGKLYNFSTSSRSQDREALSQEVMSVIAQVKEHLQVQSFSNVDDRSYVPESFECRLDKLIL

| Binder | binding result [1] | binding result [2] |
| --- | --- | --- |
| B1 | binds |  |
| B2 |  | binds |
